In patent US7645583B2, “Identification of compounds for inhibiting complexation of C-reactive protein with fibronectin” (Kimberly-Clark Worldwide, Inc., priority 2005, dated 2010):

Molecular target: CRP/Fn binding (CRP captured on immobilized CRP antibody, Fn injected) (Homo sapiens, UniProt P02741+P02751)
Experiment: SPR (Biacore X) in vitro model of the inhibitory effect of test compounds on CRP/Fn binding
Design: 10 μL of CRP antigen 6 (50 μg/mL) was injected in flow channel 2
Settings: for inhibitory effect on CRP/Fn binding (in words): at the conditions of Table 3; for SPR Response (RU): control without inhibitor 118 RU
Procedure: An in vitro model was designed to determine inhibitory effect of several different test compounds on CRP/Fn binding. Surface plasmon resonance (SPR) measurements were performed using a Biacore® X system and amine coupling kit for immobilization. […] All experiments were performed at 25° C., unless otherwise specified. The SPR technology used is based on optical phenomena in which the measured response depends on a change in refractive index in the close vicinity of the sensor chip surface. The response in such systems is proportional to the mass of analyte bound to the surface. The SPR method was used to monitor continuous analysis over the course of the interaction. […] (catalog number A58110228P), which specifically binds to calcium/phosphocholine site of CRP, was immobilized on a surface of a sensor chip 23 (CM5, carboxyl functionalized) via amine coupling chemistry as is generally known in the art. Following immobilization of the antibody to the surface of the chip 23, 10 μL of CRP antigen 6 (50 μg/mL) was injected in flow channel 2. Following this injection, 60 μL of an Fn solution 8 was injected into both flow channel 1 and flow channel 2 for two minutes duration (association phase), followed by 2 minutes delay time (dissociation phase). […] The process was repeated with an Fn solution including no inhibitor material as a control as well as several Fn solutions including various inhibitor compounds as herein described. Fn concentration was 1 mg/mL in all solutions.

[1] = inhibitor 50 μM, Fn 1 mg/mL, 25° C.
[2] = inhibitor 50 μM, Fn 1 mg/mL, 25° C., relative to control without inhibitor

CRP/Fn binding (CRP captured on immobilized CRP antibody, Fn injected), sequence (P02741 19-224): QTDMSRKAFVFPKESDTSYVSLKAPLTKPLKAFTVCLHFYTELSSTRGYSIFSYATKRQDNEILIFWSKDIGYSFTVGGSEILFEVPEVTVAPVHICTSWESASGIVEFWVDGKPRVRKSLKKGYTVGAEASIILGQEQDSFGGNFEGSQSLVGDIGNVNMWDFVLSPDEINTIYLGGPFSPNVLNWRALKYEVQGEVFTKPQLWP
CRP/Fn binding (CRP captured on immobilized CRP antibody, Fn injected), sequence (P02751 32-2477): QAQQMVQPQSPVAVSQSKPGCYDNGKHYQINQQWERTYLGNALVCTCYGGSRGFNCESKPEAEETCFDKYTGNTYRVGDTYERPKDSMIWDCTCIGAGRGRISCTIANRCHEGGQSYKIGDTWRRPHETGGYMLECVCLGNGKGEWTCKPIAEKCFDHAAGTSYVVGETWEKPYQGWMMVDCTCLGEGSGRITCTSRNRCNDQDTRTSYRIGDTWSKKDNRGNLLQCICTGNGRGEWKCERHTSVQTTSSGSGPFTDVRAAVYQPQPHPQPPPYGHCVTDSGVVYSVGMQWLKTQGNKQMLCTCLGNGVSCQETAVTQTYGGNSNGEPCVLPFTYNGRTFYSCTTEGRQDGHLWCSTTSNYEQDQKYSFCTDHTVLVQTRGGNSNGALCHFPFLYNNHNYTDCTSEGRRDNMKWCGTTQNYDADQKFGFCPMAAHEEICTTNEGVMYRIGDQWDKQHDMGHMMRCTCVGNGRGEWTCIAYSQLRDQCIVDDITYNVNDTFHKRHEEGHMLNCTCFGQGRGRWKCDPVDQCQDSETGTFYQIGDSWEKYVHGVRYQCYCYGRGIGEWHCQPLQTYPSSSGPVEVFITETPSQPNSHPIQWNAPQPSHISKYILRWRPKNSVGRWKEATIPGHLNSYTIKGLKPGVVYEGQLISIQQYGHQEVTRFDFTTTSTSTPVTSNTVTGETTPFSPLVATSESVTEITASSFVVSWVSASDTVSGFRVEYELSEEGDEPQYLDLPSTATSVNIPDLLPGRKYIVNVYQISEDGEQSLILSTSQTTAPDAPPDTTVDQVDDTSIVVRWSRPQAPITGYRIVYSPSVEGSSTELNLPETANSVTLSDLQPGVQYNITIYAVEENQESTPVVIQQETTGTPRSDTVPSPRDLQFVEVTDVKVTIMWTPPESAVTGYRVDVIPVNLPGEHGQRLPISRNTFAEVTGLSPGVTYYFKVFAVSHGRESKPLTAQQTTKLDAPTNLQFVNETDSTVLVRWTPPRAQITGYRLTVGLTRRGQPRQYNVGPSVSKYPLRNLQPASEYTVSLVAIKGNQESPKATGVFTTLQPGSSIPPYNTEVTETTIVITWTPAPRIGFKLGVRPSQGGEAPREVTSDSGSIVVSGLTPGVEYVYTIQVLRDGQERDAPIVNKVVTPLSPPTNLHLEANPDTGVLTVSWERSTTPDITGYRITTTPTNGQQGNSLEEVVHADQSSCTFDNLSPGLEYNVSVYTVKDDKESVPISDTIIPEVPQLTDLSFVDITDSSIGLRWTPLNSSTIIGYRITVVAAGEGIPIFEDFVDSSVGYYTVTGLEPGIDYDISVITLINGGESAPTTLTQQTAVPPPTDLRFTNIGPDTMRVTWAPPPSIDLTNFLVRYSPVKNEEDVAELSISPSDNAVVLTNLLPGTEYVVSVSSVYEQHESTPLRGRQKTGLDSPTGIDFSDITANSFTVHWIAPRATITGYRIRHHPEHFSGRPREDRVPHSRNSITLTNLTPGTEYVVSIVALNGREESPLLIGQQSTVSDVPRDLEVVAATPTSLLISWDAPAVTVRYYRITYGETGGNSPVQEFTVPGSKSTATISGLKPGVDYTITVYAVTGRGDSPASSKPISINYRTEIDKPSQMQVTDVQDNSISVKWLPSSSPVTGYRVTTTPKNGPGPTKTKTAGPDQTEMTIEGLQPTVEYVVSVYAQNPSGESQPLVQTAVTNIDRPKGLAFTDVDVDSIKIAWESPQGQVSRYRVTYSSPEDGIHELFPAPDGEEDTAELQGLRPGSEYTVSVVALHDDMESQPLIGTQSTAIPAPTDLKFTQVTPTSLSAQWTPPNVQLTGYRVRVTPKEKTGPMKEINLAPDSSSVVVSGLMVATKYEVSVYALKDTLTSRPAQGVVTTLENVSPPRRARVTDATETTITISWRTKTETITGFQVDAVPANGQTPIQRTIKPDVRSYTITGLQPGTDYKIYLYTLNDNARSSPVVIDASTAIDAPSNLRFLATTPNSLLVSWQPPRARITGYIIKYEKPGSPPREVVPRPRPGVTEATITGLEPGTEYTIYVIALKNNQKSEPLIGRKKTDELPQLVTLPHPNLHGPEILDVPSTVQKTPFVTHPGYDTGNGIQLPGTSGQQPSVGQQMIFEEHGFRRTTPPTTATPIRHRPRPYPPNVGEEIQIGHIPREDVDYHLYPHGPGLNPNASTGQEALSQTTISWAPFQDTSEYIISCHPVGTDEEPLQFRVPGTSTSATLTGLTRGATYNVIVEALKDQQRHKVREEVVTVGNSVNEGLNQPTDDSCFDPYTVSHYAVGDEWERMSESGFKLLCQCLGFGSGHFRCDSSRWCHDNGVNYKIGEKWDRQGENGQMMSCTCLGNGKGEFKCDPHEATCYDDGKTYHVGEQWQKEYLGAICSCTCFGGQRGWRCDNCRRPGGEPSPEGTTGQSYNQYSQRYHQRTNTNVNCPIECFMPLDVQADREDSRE

Row | SPR Response (RU) (inhibitor 40 μM, Fn 1 mg/mL, 25° C.) | % Inhibition (inhibitor 40 μM, Fn 1 mg/mL, 25° C., relative to control without inhibitor) [%] | SPR Response (RU) (inhibitor 200 μM, Fn 1 mg/mL, 25° C.) | inhibition at 200 µM (inhibitor 200 μM, Fn 1 mg/mL, 25° C., relative to control without inhibitor) [%] | Compound | inhibitory effect on CRP/Fn binding (in words) | SPR Response (RU) [1] [RU] | % Inhibition [2] [%]
1 | – | – | – | – | 10-mer: 10-mer polypeptide of SEQ ID NO.:12, exemplary inhibitor of CRP/Fn complexation (NYNFFPRKPK; listed as Homo sapiens) | somewhat less inhibitory effect | 76 | 35.6
2 | 94 | 20.4 | – | – | CC/C=C\C[C@H]1C(=O)CC[C@@H]1CC(=O)O [Jasmonic acid, jasmonic acid] | somewhat less inhibitory effect | – | –
3 | – | – | 90 | 23.7 | C=C1C[C@]23C[C@@]1(O)CC[C@H]2[C@@]12C=C[C@H](O)[C@@](C)(C(=O)O1)[C@H]2[C@@H]3C(=O)O [Gibberellic acid, gibberellic acid] | somewhat less inhibitory effect | – | –
4 | – | – | – | – | 9-mer: 9 mer segment of SEQ ID NO.:11, specifically the first nine amino acids of SEQ ID NO.:11 (PRCGNPDVA; listed as Homo sapiens) | no significant effect | 119 | 0.0
